The target of test [1] is T1, human IL6 receptor (IL-6R) (Homo sapiens, UniProt P08887).
T1 sequence (P08887 20-355 limits assumed): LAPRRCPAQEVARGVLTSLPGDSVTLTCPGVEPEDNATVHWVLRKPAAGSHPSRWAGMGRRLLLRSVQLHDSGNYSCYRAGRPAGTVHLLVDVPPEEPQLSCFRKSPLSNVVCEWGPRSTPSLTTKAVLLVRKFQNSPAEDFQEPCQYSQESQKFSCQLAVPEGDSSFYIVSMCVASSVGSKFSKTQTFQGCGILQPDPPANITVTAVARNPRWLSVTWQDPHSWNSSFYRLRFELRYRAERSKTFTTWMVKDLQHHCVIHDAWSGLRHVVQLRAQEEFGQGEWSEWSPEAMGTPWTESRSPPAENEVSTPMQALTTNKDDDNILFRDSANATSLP
Briefly: Biacore T200, interaction of 6RNMSC1-2_F02 with human IL6 receptor with or without kynurenine. The format is binding. As to conditions: 25° C. The source says: Biacore T200 (GE Healthcare) was used to analyze the interaction of 6RNMSC1-2_F02 with human IL6 receptor (IL-6R) in antigen-antibody reaction. Sensor chip CM5 (GE Healthcare) was immobilized with an appropriate amount of protein A (Invitrogen) by amine coupling. The antibody of interest was captured by the chip to allow interaction with IL-6R as an antigen. The running buffer used was 20 mmol/1 ACES, 150 mmol/l NaCl, 0.05% (w/v) Tween20, pH 7.4. The interaction with the antigen IL-6R was assayed at 25° C. The buffers used to dilute IL-6R were the running buffer itself, and a buffer prepared by adding 100 μmol/l kynurenine to the running buffer, and in addition a buffer prepared as a control by adding 10 mmol/l ATP to the running buffer.
A diluted IL-6R solution and a running buffer as a blank were injected at a flow rate of […] for one minute to allow interaction of IL-6R with 6RNMSC1-2_F02 captured on the sensor chip. Then, the running buffer was injected at a flow rate of 10 μl/min for one minute. After observation of IL-6R dissociation from the antibody, 10 mmol/l glycine-HCl (pH 1.5) was injected at a flow rate of 30 μl/min for 30 seconds to regenerate the sensor chip. The dissociation constant KD (M) of 6RNMSC1-2_F02 was calculated for IL-6R based on the association rate constant ka (1/Ms) and dissociation rate constant kd (1/s), both of which are kinetic parameters calculated from the sensorgram obtained by the measurement. Each parameter was calculated using the Biacore T200 Evaluation Software (GE Healthcare).
The running buffers used were 20 mmol/1 ACES, 150 mmol/l NaCl, 0.05% (w/v) Tween20, pH 7.4, and 20 mmol/1 ACES, 150 mmol/l NaCl, 0.05% (w/v) Tween20, pH 7.4, 100 μmol/l kynurenine, and assay was carried out at 25° C. IL-6R was immobilized onto Sensor chip CM5 by amine coupling; and 6RNMSC1-2_F02 was diluted to 5 μg/ml with 20 mmol/1 ACES, 150 mmol/l NaCl, 0.05% (w/v) Tween20, pH 7.4, containing 100 μmol/l kynurenine, and it was interacted as an analyte for 180 seconds. Then, the dissociation of […] was monitored under each running buffer condition. In order to compare the degree of dissociation between the respective running buffer conditions, the values were normalized by taking as 100 the amount of 6RNMSC1-2_F02 bound to IL-6R in the presence of 100 μmol/l kynurenine and compared.
Next, Biacore T200 (GE Healthcare) was used to assess the effect of kynurenine concentration on the antigen-antibody reaction between 6RNMSC1-2_F02 and IL-6R. The running buffer used was 20 mmol/1 ACES, 150 mmol/l NaCl, 0.05% (w/v) Tween20, pH 7.4. The antigen-antibody reaction between 6RNMSC1-2_F02 and human IL-6R was assayed at 25° C. IL-6R was immobilized onto sensor chip CM5 by amine coupling; and 6RNMSC1-2_F02 was diluted to 1 μg/ml with 20 mmol/l ACES, 150 mmol/l NaCl, 0.05% (w/v) Tween20, pH 7.4 containing various concentrations of kynurenine, and it was allowed to interact as an analyte for 180 seconds to observe changes in the amount of binding.

Test [2] has as its target T2, hIL-6R (Homo sapiens, UniProt P08887).
T2 sequence (P08887 20-355 limits assumed): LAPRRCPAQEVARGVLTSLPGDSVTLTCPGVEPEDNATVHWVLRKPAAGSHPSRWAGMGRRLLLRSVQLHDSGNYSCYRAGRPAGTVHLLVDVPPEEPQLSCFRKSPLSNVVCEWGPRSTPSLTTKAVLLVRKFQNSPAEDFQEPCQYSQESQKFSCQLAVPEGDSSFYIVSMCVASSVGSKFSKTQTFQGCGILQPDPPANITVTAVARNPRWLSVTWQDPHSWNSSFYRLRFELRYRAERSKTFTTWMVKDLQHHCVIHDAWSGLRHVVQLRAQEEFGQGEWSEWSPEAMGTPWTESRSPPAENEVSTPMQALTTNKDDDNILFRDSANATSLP
Briefly: IgG ELISA, binding to hIL-6R in mouse serum with or without kynurenine. As to conditions: Table 20: condition 1 (mouse serum without kynurenine) vs condition 2 (mouse serum in the presence of kynurenine). The protocol: As described in Example 14, antibody 6RNMSC1-2_F02 which has antigen-binding activity in the presence of kynurenine, and the known anti-hIL-6R antibody MRA were subjected to ELISA under the two conditions described in Table 20. The antigen used was biotin-labeled hIL-6R.
First, a StreptaWell 96 microtiter plate (Roche) was coated at room temperature for one hour or more with 100 μl of PBS containing the biotin-labeled antigen. After washing with Wash buffer to remove unbound antigen from the plate, each well was blocked for one hour or more with 250 μl of Blocking Buffer. After Blocking Buffer was removed from each well, each of the purified IgGs was prepared to 2.5 μg/ml under condition 2 shown in Table 20, and aliquoted at 100 μl into the plate. The plate was allowed to stand at room temperature for one hour to allow binding of each IgG to the antigen in each well. After washing with Wash Buffer containing 100 μM kynurenine, an HRP-conjugated anti-human IgG antibody (BIOSOURCE) diluted with Sample Buffer containing kynurenine was added to each well. The plate was incubated for one hour. Following wash with Wash Buffer containing kynurenine, the TMB single solution (ZYMED) was added to each well. The chromogenic reaction in the solution of each well was terminated by adding sulfuric acid. Then, the developed color was assessed by measuring absorbance at 450 nm.
For orientation: In an ELISA, binding on a coated surface is turned into a signal by an enzyme label.

B1: 6RNMSC1-2_F02: antibody that binds to hIL-6R in the presence of kynurenine; SEQ ID NOs: 86 and 87 (antibody, listed as Homo sapiens, V domains shown)
VH: QVQLVQSGAEVKKPGSSVKVSCKASGGTFSSYAISWVRQAPGQGLEWMGGIIPIFGTANYAQKFQGRVTITADESTSTAYMELSSLRSEDTAVYYCARDAPVVARPRGAFDIWGQGTMVTVSS
VL: DIVMTQTPLSSPVTLGQPASISCRSSQSLVHSDGNTYLSWLQQRPGQPPRLLIHEISNRFSGVPDRFSGSGAGTNFTLKISRVEAEDVGVYYCMQATQFPRTFGQGTKVEIK
For orientation: Kd means a measure of binding affinity in units of concentration. Turning to B1, in test [1] (1 μmol/l IL-6R, in the absence of kynurenine), the “IL-6R binding (sensorgram)” value is recorded as “not detectable”. Also, the “binding to IL-6R (sensorgram)” value in test [1] (1 μmol/l IL-6R, in the presence of 100 μmol/l kynurenine) is “binds to IL-6R”. For the same molecule, the “effect of kynurenine concentration on amount bound to IL-6R” value in test [1] (IL-6R immobilized, antibody as analyte for 180 seconds) is recorded as “the higher the concentration of kynurenine serving as a switch, the greater the amount of 6RNMSC1-2_F02 bound to IL-6R”. The “dissociation from IL-6R” value in test [1] (bound with 100 μmol/l kynurenine, then buffer without kynurenine, IL-6R immobilized) is “rapidly dissociates from IL-6R in the absence of kynurenine”. Also, the Kd in test [1] (in the presence of 100 μmol/l kynurenine, read-out: dissociation constant KD) came out at 1500 nM. The “absorbance under condition 1 as compared to condition 2” value in test [2] is given as “markedly lower”.

Values taken from patent US11673947B2, “Target tissue-specific antigen-binding molecule” (Chugai Seiyaku Kabushiki Kaisha, priority 2012, dated 2023).
